Experimental findings from patent US20220002362A1 are described below.

The target in this experiment is OptoSTIM1 (CRY2 E281A) (Arabidopsis thaliana) (UniProt Q13586). Briefly: cell-based or functional assay.

“OptoSTIM1 (CRY2 E281A) (from UniProt Q13586 238-668)” registered an activation half-maximal time (R-GECO1 level upon light stimulation) of 62 s and an inactivation half time (R-GECO1 level after light removal) of 7 min.
